Results reported in article PMC4682845 (PLoS ONE, 2015).

Experiments:
AUC = target: the molecule itself; assay: AUC
[1] = target: […]-para-nitroanilide (TQ6-pNA) peptide substrate; assay: ITC + other: steady-state kinetics; details: both partners purified

B1: SARS-CoV main protease (M^pro), wild type (enzyme)
chain: SGFRKMAFPSGKVEGCMVQVTCGTTTLNGLWLDDTVYCPRHVICTAEDMLNPNYEDLLIRKSNHSFLVQAGNVQLRVIGHSMQNCLLRLKVDTSNPKTPKYKFVRIQPGQTFSVLACYNGSPSGVYQCAMRPNHTIKGSFLNGSCGSVGFNIDYDCVSFCYMHHMELPTGVHAGTDLEGKFYGPFVDRQTAQAAGTDTTITLNVLAWLYAAVINGDRWFLNRFTTTLNDFNLVAMKYNYEPLTQDHVDILGPLSAQTGIAVLDMCAALKELLQNGMNGRTILGSTILEDEFTPFDVVRQCSGVTFQ
Binder B1 has a Kd (AUC) of 700 ± 20 nM, a koff [1] of 0.084 s⁻¹ and a kon [1] of 2460 M⁻¹ s⁻¹.
